Reference: US20160297863A1 (WAKE FOREST UNIVERSITY HEALTH SCIENCES, published 2016)

Biological target: EphA2 receptor on GBM cells (human, UniProt P29317 24-976)
Assay: cell-based or functional assay

Sequence of EphA2 receptor on GBM cells (P29317 24-976): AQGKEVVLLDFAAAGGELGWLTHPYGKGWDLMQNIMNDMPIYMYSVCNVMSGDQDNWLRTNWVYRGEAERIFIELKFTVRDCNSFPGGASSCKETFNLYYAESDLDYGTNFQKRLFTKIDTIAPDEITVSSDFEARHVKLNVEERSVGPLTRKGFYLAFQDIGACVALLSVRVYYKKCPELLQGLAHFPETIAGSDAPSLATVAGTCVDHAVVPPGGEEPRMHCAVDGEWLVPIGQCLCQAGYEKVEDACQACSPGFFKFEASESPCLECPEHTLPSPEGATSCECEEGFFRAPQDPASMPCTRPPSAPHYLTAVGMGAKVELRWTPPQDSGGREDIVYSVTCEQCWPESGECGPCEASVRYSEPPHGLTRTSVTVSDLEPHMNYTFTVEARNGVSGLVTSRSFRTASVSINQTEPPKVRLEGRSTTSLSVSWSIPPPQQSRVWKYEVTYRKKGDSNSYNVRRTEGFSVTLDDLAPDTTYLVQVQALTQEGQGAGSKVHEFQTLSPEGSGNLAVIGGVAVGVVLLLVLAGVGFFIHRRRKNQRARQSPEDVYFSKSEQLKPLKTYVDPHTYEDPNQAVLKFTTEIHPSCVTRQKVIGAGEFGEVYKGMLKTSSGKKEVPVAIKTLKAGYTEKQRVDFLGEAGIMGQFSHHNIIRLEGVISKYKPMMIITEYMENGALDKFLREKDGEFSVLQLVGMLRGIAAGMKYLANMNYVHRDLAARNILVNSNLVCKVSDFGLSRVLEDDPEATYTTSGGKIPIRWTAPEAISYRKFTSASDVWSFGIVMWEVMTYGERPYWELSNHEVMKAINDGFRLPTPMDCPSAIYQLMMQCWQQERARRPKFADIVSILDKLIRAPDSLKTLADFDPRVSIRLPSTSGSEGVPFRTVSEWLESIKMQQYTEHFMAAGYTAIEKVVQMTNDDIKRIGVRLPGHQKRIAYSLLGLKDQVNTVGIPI

B1: eA5-PE-C (eA5-Fc chemically conjugated to PE38QQR, glycosylated form) (other)
chain: QDPGSKAVADRYAVYWNSSNPRFQRGDYHIDVCINDYLDVFCPHYEDSVPEDKTERYVLYMVNFDGYSACDHTSKGFKRWECNRPHSPNGPLKFSEKFQLFTPFSLGFEFRPGREYFYISSAIPDNGRRSCLKLKVFVRPTNSCMKTIGVHDRVFDVNDKVENSLEPADDT
IC50, GBM tumor cell killing (cell viability assay): ~10 pM
